Measured values as given in US20260130994A1.

Target: CD3ε on wildtype primary human T cells (human) (UniProt P07766)
Assay: cell-based or functional assay

Sequence of CAR4 (CD3ε.CD8α.4-1BB.CD3ζ), myc-tagged second-generation CAR with the OKT3 scFv, expressed on NK-92 cells (chain): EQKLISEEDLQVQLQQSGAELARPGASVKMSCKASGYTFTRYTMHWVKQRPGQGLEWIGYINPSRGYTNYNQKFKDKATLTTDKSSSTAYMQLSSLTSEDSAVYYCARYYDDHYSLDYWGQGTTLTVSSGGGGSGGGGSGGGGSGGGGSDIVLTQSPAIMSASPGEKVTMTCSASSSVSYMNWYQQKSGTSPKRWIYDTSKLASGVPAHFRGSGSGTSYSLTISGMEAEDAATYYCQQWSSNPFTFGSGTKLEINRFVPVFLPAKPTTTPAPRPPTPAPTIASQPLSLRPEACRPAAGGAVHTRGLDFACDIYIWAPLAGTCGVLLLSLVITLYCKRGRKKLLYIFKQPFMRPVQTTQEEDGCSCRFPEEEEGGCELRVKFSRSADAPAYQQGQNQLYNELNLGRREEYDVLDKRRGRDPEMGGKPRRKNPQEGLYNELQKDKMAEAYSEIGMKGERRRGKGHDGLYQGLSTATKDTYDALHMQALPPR

average residual TCR+ T cells after co-culture in G-Rex, regimen 1:2A: 0.026% | average residual TCR+ T cells after co-culture in G-Rex, regimen 1:2B: 0.007% | removal of residual wildtype T cells, 2 co-culture cycles: > 99.9% | removal of residual wildtype T cells, single administration: 98.6%
Substance: CAR4 (CD3ε.CD8α.4-1BB.CD3ζ), myc-tagged second-generation CAR with the OKT3 scFv, expressed on NK-92 cells
